Laboratory results published in patent EP4349860A1 (Fundació Institut Hospital Del Mar D'Investigacions …, dated 2024).
Like-named read-outs stand apart in the source and are kept apart here.

Legend:
[1] = molecular target: T1, SARS-CoV-2 spike protein, Beta (B.1.351) variant, on pseudovirus (SARS-CoV-2 (Beta variant)); assay: cell-based or functional assay
[2] = molecular target: T2, SARS-CoV-2 spike protein, Omicron BA.2 variant, on pseudovirus (SARS-CoV-2 (Omicron BA.2 variant)); assay: cell-based or functional assay
[3] = molecular target: T3, SARS-CoV-2 spike protein, Delta (B.1.617.2) variant, on pseudovirus (SARS-CoV-2 (Delta variant)); assay: cell-based or functional assay
[4] = molecular target: T4, SARS-CoV-2 spike protein, Gamma (P.1) variant, on pseudovirus (SARS-CoV-2 (Gamma variant)); assay: cell-based or functional assay
[5] = molecular target: T5, SARS-CoV-2 spike protein, Alpha (B.1.1.7) variant, on pseudovirus (SARS-CoV-2 (Alpha variant)); assay: cell-based or functional assay
[6] = molecular target: SARS-CoV-2 spike protein, Omicron BA.4/BA.5 variants, on pseudovirus (SARS-CoV-2 (Omicron BA.4/BA.5 variants)); assay: cell-based or functional assay
[7] = molecular target: T1, SARS-CoV-2 spike protein, Beta …; assay: cell-based or functional assay; remark: listed apart in the source
[8] = molecular target: SARS-CoV-2 spike protein, Mu (B.1.621) variant, on pseudovirus (SARS-CoV-2 (Mu variant)); assay: cell-based or functional assay
[9] = molecular target: T3, SARS-CoV-2 spike protein, Delta …; assay: cell-based or functional assay; remark: listed apart in the source
[10] = molecular target: T4, SARS-CoV-2 spike protein, Gamma (P.1) …; assay: cell-based or functional assay; remark: listed apart in the source
[11] = molecular target: T5, SARS-CoV-2 spike protein, Alpha …; assay: cell-based or functional assay; remark: listed apart in the source
[12] = molecular target: T2, SARS-CoV-2 spike protein, Omicron BA.2 …; assay: cell-based or functional assay; remark: listed apart in the source
[13] = molecular target: T6, RBD of the SARS-CoV-2 spike protein, Gamma (P.1) variant (SARS-CoV-2 (Gamma variant), UniProt P0DTC2 319-541); assay: ELISA, plate coated with RBD at 2 µg/ml, anti-human IgG-HRP detection
T6 construct: domain: RBD

[14] = molecular target: T7, RBD of the SARS-CoV-2 spike protein, Beta (B.1.351) variant (SARS-CoV-2 (Beta variant), UniProt P0DTC2 319-541); assay: as above
T7 construct: domain: RBD

[15] = molecular target: T8, RBD of the SARS-CoV-2 spike protein, Delta (B.1.617.2) variant (SARS-CoV-2 (Delta variant), UniProt P0DTC2 319-541); assay: as above
T8 construct: domain: RBD

B1: mAb17T2 (antibody, V domains shown)
VH: QVQLVQSGPEVKKPGTSVKVSCKAPVFTFSISAVQWVRQARGQRLEWIGWIVVGSGNTNYAQNFQERVTITTDMSTGTVYMELSGLRSEDTAMYYCAAPYCNRTTCYDGFDLWGQGTMVTVSS
VL: EIVLTQSPGTLSLSPGERATLSCRASQSISSNYLAWYQQKPGQAPRLLIYGASSRATGIPDRFSGSGSGTDFTLSINRLEPEDFAMYYCQHYGGLSRWTFGQGTKVEIKR
IC50 (µg/ml), pseudotyped virus neutralization [1]: 0.0027 µg/mL | IC50 (µg/ml), pseudotyped virus neutralization [2]: 0.0101 µg/mL | IC50 (µg/ml), pseudotyped virus neutralization [3]: 0.0096 µg/mL | IC50 (µg/ml), pseudotyped virus neutralization [4]: 0.0083 µg/mL | IC50 (µg/ml), pseudotyped virus neutralization [5]: 0.0069 µg/mL | IC50 (µg/ml), pseudotyped virus neutralization [6]: 0.00203 µg/mL | IC50 (µg/ml), pseudotyped virus neutralization [7]: 0.0022 µg/mL | IC80 (µg/ml), pseudotyped virus neutralization [7]: 0.00481 µg/mL | IC90 (µg/ml), pseudotyped virus neutralization [7]: 0.0076 µg/mL | IC50 (µg/ml), pseudotyped virus neutralization [8]: 0.00907 µg/mL | IC80 (µg/ml), pseudotyped virus neutralization [8]: 0.014 µg/mL | IC90 (µg/ml), pseudotyped virus neutralization [8]: 0.0181 µg/mL | IC50 (µg/ml), pseudotyped virus neutralization [9]: 0.0105 µg/mL | IC80 (µg/ml), pseudotyped virus neutralization [9]: 0.0165 µg/mL | IC90 (µg/ml), pseudotyped virus neutralization [9]: 0.0215 µg/mL | IC50 (µg/ml), pseudotyped virus neutralization [10]: 0.0126 µg/mL | IC80 (µg/ml), pseudotyped virus neutralization [10]: 0.0218 µg/mL | IC90 (µg/ml), pseudotyped virus neutralization [10]: 0.0302 µg/mL | IC50 (µg/ml), pseudotyped virus neutralization [11]: 0.00666 µg/mL | IC80 (µg/ml), pseudotyped virus neutralization [11]: 0.014 µg/mL | IC90 (µg/ml), pseudotyped virus neutralization [11]: 0.0216 µg/mL | fold neutralizing activity compared to S2E12 [12]: 13.5 fold | fold neutralizing activity compared to S309 [12]: 41 fold | EC50 [13]: 3.08 ng/mL | EC50 [14]: 3.76 ng/mL | EC50 [15]: 3.38 ng/mL
